Kd data for one molecule are collected here from paper PMC7544621 (Structure (London, England : 1993), 2020).

The target in the experiment is T1, monomeric head domain of HA from H1 A/Solomon Islands/03/2006 (Influenza A virus A/Solomon …).
T1 chain: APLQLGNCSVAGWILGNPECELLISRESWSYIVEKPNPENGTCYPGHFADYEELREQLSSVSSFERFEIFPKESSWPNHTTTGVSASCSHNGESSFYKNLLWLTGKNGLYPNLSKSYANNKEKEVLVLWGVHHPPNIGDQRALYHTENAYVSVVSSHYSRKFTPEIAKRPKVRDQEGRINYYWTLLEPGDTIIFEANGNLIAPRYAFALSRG
The experiment can be described thus: BLI.

B1: C05 IgG (anti-influenza human mAb C05) (antibody, V domains shown)
VH: QVQLQESGGGLVQPGESLRLSCVGSGSSFGESTLSYYAVSWVRQAPGKGLEWLSIINAGGGDIDYADSVEGRFTISRDNSKETLYLQMTNLRVEDTGVYYCAKHMSMQQVVSAGWERADLVGDAFDVWGQGTMVTVSS
VL: DIQLTQSPSSLSASVGDRVTLTCQASQDIRKFLNWYQQKPGKGPKLLIYDASNLQRGVPSRFSGGGSGTDFTLIISSLQPEDVGTYYCQQYDGLPFTFGGGTKVVIK
As a reminder, the Kd is the constant that tells how readily two partners part at equilibrium. Read a high Kd as weaker binding. Molecule B1 registered an equilibrium dissociation constant (Kd) of 88 nM. This lies in the double-digit nanomolar range.
